In the supplement of paper PMC7877785:
± gives the uncertainty stated by the source.

Assay: self-splicing fitness, log relative to wild type (ln ratio); higher = more splicing; Tetrahymena group I intron in knt gene, E. coli kanamycin selection, DiMSum; sequences stand for … in CUCUCU…GGAGGGAAAAGUUAUCAGGCAUGCACCUGGUAGCUAGUCUUUAAACCAAUAGAUUGCAUCGGUUUAAAAGGCAAGACCGUCAAAUUGCGGGAAAGGGGUCAACAGCCGUUCAGUACCAAGUCUCAGGGGAAACUUUGAGAUGGCCUUGCAAAGGGUAUGGUAAUAAGCUGACGGACAUGGUCCUAACCACGCAGCCAAGUCCUAAGUCAACAGAUCUUCUGUUGAUAUGGAUGCAGUUCACAGACUAAAUGUCGGUCGGGGAAGAUGUAUUCUUCUCAUAAGAUAUAGUCGGACCUCUCCUUAAUGGGAGCUAGCGGAUGAAGUGAUGCAACACUGGAGCCGCUGGGAACUAAUUUGUAUGCGAAAGUAUAUUGAUUAGUUUUGGAGUACUCGUGGUCG
Outline: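 A randomised library covering all eight P1ex-region intron nucleotides was built with the intron in the knt kanamycin-resistance gene on pET-22b(+) and held in E. coli BL21(DE3). Cells were grown overnight at 37°C or 30°C on LB agar, with or without 25 μg/mL kanamycin, plus 100 μg/mL carbenicillin, 50 μM IPTG and 0.2% rhamnose, and pooled colonies were amplicon-sequenced on an Illumina HiSeq 2500. DiMSum fitness is the error-weighted combination of wild-type-normalised replicate fold changes, kanamycin versus none.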

Sequence | self-splicing fitness (ln) (30 °C) | self-splicing fitness (ln) (37 °C)
CCUCAGCAAUAUUACGGGGA | -3.03 ± 0.14 | -2.1 ± 0.15
CCUCAGCAAUAUUACGGUCC | -4.07 ± 0.36 | 
CCUCAGCAAUAUUACGUACG | -1.32 ± 0.069 | -0.131 ± 0.084
CCUCAGCAAUAUUACGUCCG | -1.86 ± 0.072 | -0.0776 ± 0.11
CCUCAGCAAUAUUACGUCGA | -3.67 ± 0.27 | -2.28 ± 0.2
CCUCAGCAAUAUUACGUCGC |  | -3.77 ± 0.36
CCUCAGCAAUAUUACGUGUA | -2.19 ± 0.13 | -2.16 ± 0.15
CCUCAGCAAUAUUACGUUAC | -3.54 ± 0.19 | -3.7 ± 0.36
CCUCAGCAAUAUUACGUUAG | -3.27 ± 0.15 | -2.14 ± 0.14
CCUCAGCAAUAUUACGUUUC | -3.04 ± 0.17 | -2.44 ± 0.2
CCUGAGCAAUAUUACGAAGU |  | -0.825 ± 0.19
CCUGAGCAAUAUUACGACGA | -2.99 ± 0.24 | -1.61 ± 0.17
CCUGAGCAAUAUUACGAUAU | -4.45 ± 0.37 | -2.39 ± 0.23
CCUGAGCAAUAUUACGCAAG | -3.97 ± 0.24 | -2.49 ± 0.19
CCUGAGCAAUAUUACGCUAU | -3.66 ± 0.2 | -3.09 ± 0.19
CCUGAGCAAUAUUACGCUCA | -1.37 ± 0.28 | -1.94 ± 0.38
CCUGAGCAAUAUUACGCUGC | -4.04 ± 0.37 | -2.34 ± 0.22
CCUGAGCAAUAUUACGGAGA | -2.39 ± 0.25 | -3.09 ± 0.35
CCUGAGCAAUAUUACGGCAU | -3.93 ± 0.23 | -4.08 ± 0.42
CCUGAGCAAUAUUACGGUUU | -3.26 ± 0.2 | -2.38 ± 0.19
CCUGAGCAAUAUUACGUACG | -2.08 ± 0.2 | -1.24 ± 0.22
CCUGAGCAAUAUUACGUACU | -2.04 ± 0.21 | -2.3 ± 0.3

Sequence | self-splicing fitness (ln) (30 °C) | self-splicing fitness (ln) (37 °C)
CCUGAGCAAUAUUACGUCCG | -3.25 ± 0.24 | -1.93 ± 0.33
CCUGAGCAAUAUUACGUCGA | -3.41 ± 0.42 | -3.34 ± 0.33
CCUGAGCAAUAUUACGUGUG | -1.62 ± 0.058 | -1.18 ± 0.066
CCUUAGCAAUAUUACGAAUG | -1.27 ± 0.11 | -0.423 ± 0.1
CCUUAGCAAUAUUACGAUUG | -1.85 ± 0.098 | -0.965 ± 0.1
CCUUAGCAAUAUUACGCAUU | -4.02 ± 0.46 | 
CCUUAGCAAUAUUACGCCAG |  | -2.05 ± 0.45
CCUUAGCAAUAUUACGCCGA | -2.16 ± 0.35 | -1.98 ± 0.46
CCUUAGCAAUAUUACGCGCG | -2.71 ± 0.39 | -3.39 ± 0.42
CCUUAGCAAUAUUACGCGUU | -3.55 ± 0.21 | -2.12 ± 0.16
CCUUAGCAAUAUUACGCUGC | -2.81 ± 0.28 | 
CCUUAGCAAUAUUACGCUUG | -3.86 ± 0.3 | -3.5 ± 0.37
CCUUAGCAAUAUUACGGAGG | -3.99 ± 0.41 | -3.11 ± 0.37
CCUUAGCAAUAUUACGGAGU | -3.24 ± 0.21 | -2.78 ± 0.19
CCUUAGCAAUAUUACGGCUG | -3.9 ± 0.19 | -2.39 ± 0.17
CCUUAGCAAUAUUACGGGCA | -3.91 ± 0.33 | -3.36 ± 0.35
CCUUAGCAAUAUUACGGGCG | -1.64 ± 0.083 | -0.95 ± 0.093
CCUUAGCAAUAUUACGGUAA | -2.78 ± 0.27 | -2.59 ± 0.35
CCUUAGCAAUAUUACGGUCU | -3.95 ± 0.25 | -3.77 ± 0.46
CCUUAGCAAUAUUACGGUUC | -2.91 ± 0.18 | -2.72 ± 0.39
CCUUAGCAAUAUUACGUCCG | -1.73 ± 0.11 | -0.989 ± 0.17
CCUUAGCAAUAUUACGUCGA |  | -2.67 ± 0.34
